{"source": "the MegaScale stability set (Tsuboyama et al. 2023)", "parents": {"B1": {"name": "1ZHC (parent)", "chain": "HEFRDEISVLKANNPHFDKIFEKHNQLDDDIKTAEQQNASDAEVSHMKKQKLKLKDEIHSMIIEYREK"}}, "data": [{"variants_of": "B1", "assay": "folding stability dG (cDNA display proteolysis); higher = more stable", "details": "PBS, room temperature", "units": {"folding stability dG": "kcal/mol"}, "values": [{"variant": "HEFRDEISVLKANNPKFDKIFEKHNQLDDDIKTAEQQNASDAEVSHMKKQKLKLKDEIHSMIIEYREK", "note": "[H16K]", "folding stability dG": 0.147}, {"variant": "HEFRDEISVLKANNPIFDKIFEKHNQLDDDIKTAEQQNASDAEVSHMKKQKLKLKDEIHSMIIEYREK", "note": "[H16I]", "folding stability dG": 0.609}, {"variant": "HEFRDEISVLKANNPRFDKIFEKHNQLDDDIKTAEQQNASDAEVSHMKKQKLKLKDEIHSMIIEYREK", "note": "[H16R]", "folding stability dG": 0.534}, {"variant": "HEFRDEISVLKANNPVFDKIFEKHNQLDDDIKTAEQQNASDAEVSHMKKQKLKLKDEIHSMIIEYREK", "note": "[H16V]", "folding stability dG": 0.505}, {"variant": "HEFRDEISVLKANNPGFDKIFEKHNQLDDDIKTAEQQNASDAEVSHMKKQKLKLKDEIHSMIIEYREK", "note": "[H16G]", "folding stability dG": -0.149}, {"variant": "HEFRDEISVLKANNPFFDKIFEKHNQLDDDIKTAEQQNASDAEVSHMKKQKLKLKDEIHSMIIEYREK", "note": "[H16F]", "folding stability dG": 0.373}, {"variant": "HEFRDEISVLKANNPMFDKIFEKHNQLDDDIKTAEQQNASDAEVSHMKKQKLKLKDEIHSMIIEYREK", "note": "[H16M]", "folding stability dG": -0.101}, {"variant": "HEFRDEISVLKANNPWFDKIFEKHNQLDDDIKTAEQQNASDAEVSHMKKQKLKLKDEIHSMIIEYREK", "note": "[H16W]", "folding stability dG": 1.1}, {"variant": "HEFRDEISVLKANNPYFDKIFEKHNQLDDDIKTAEQQNASDAEVSHMKKQKLKLKDEIHSMIIEYREK", "note": "[H16Y]", "folding stability dG": 1.53}, {"variant": "HEFRDEISVLKANNPQFDKIFEKHNQLDDDIKTAEQQNASDAEVSHMKKQKLKLKDEIHSMIIEYREK", "note": "[H16Q]", "folding stability dG": 0.27}, {"variant": "HEFRDEISVLKANNPDFDKIFEKHNQLDDDIKTAEQQNASDAEVSHMKKQKLKLKDEIHSMIIEYREK", "note": "[H16D]", "folding stability dG": -0.361}, {"variant": "HEFRDEISVLKANNPEFDKIFEKHNQLDDDIKTAEQQNASDAEVSHMKKQKLKLKDEIHSMIIEYREK", "note": "[H16E]", "folding stability dG": 0.338}, {"variant": "HEFRDEISVLKANNPCFDKIFEKHNQLDDDIKTAEQQNASDAEVSHMKKQKLKLKDEIHSMIIEYREK", "note": "[H16C]", "folding stability dG": 0.932}, {"variant": "HEFRDEISVLKANNPAFDKIFEKHNQLDDDIKTAEQQNASDAEVSHMKKQKLKLKDEIHSMIIEYREK", "note": "[H16A]", "folding stability dG": 0.24}, {"variant": "HEFRDEISVLKANNPNFDKIFEKHNQLDDDIKTAEQQNASDAEVSHMKKQKLKLKDEIHSMIIEYREK", "note": "[H16N]", "folding stability dG": -0.56}, {"variant": "HEFRDEISVLKANNPTFDKIFEKHNQLDDDIKTAEQQNASDAEVSHMKKQKLKLKDEIHSMIIEYREK", "note": "[H16T]", "folding stability dG": 0.264}, {"variant": "HEFRDEISVLKANNPLFDKIFEKHNQLDDDIKTAEQQNASDAEVSHMKKQKLKLKDEIHSMIIEYREK", "note": "[H16L]", "folding stability dG": 0.427}, {"variant": "HEFRDEISVLKANNPSFDKIFEKHNQLDDDIKTAEQQNASDAEVSHMKKQKLKLKDEIHSMIIEYREK", "note": "[H16S]", "folding stability dG": -0.066}, {"variant": "HEFRDEISVLKVNNPHFDKIFEKHNQLDDDIKTAEQQNASDAEVSHMKKQKLKLKDEIHSMIIEYREK", "note": "[A12V]", "folding stability dG": 0.253}, {"variant": "HEFRDEISVLKTNNPHFDKIFEKHNQLDDDIKTAEQQNASDAEVSHMKKQKLKLKDEIHSMIIEYREK", "note": "[A12T]", "folding stability dG": 0.659}, {"variant": "HEFRDEISVLKSNNPHFDKIFEKHNQLDDDIKTAEQQNASDAEVSHMKKQKLKLKDEIHSMIIEYREK", "note": "[A12S]", "folding stability dG": 0.404}, {"variant": "HEFRDEISVLKRNNPHFDKIFEKHNQLDDDIKTAEQQNASDAEVSHMKKQKLKLKDEIHSMIIEYREK", "note": "[A12R]", "folding stability dG": 0.983}, {"variant": "HEFRDEISVLKWNNPHFDKIFEKHNQLDDDIKTAEQQNASDAEVSHMKKQKLKLKDEIHSMIIEYREK", "note": "[A12W]", "folding stability dG": -0.494}, {"variant": "HEFRDEISVLKYNNPHFDKIFEKHNQLDDDIKTAEQQNASDAEVSHMKKQKLKLKDEIHSMIIEYREK", "note": "[A12Y]", "folding stability dG": 0.632}, {"variant": "HEFRDEISVLKANEPHFDKIFEKHNQLDDDIKTAEQQNASDAEVSHMKKQKLKLKDEIHSMIIEYREK", "note": "[N14E]", "folding stability dG": -0.24}, {"variant": "HEFRDEISVLKANIPHFDKIFEKHNQLDDDIKTAEQQNASDAEVSHMKKQKLKLKDEIHSMIIEYREK", "note": "[N14I]", "folding stability dG": -0.077}, {"variant": "HEFRDEISVLKANDPHFDKIFEKHNQLDDDIKTAEQQNASDAEVSHMKKQKLKLKDEIHSMIIEYREK", "note": "[N14D]", "folding stability dG": 0.835}, {"variant": "HEFRDEISVLKANMPHFDKIFEKHNQLDDDIKTAEQQNASDAEVSHMKKQKLKLKDEIHSMIIEYREK", "note": "[N14M]", "folding stability dG": -0.831}, {"variant": "HEFRDEISVLKANWPHFDKIFEKHNQLDDDIKTAEQQNASDAEVSHMKKQKLKLKDEIHSMIIEYREK", "note": "[N14W]", "folding stability dG": 1}, {"variant": "HEFRDEISVLKANFPHFDKIFEKHNQLDDDIKTAEQQNASDAEVSHMKKQKLKLKDEIHSMIIEYREK", "note": "[N14F]", "folding stability dG": 0.397}, {"variant": "HEFRDEISVLKANVPHFDKIFEKHNQLDDDIKTAEQQNASDAEVSHMKKQKLKLKDEIHSMIIEYREK", "note": "[N14V]", "folding stability dG": -0.058}, {"variant": "HEFRDEISVLKANLPHFDKIFEKHNQLDDDIKTAEQQNASDAEVSHMKKQKLKLKDEIHSMIIEYREK", "note": "[N14L]", "folding stability dG": -0.009}, {"variant": "HEFRDEISVLKANHPHFDKIFEKHNQLDDDIKTAEQQNASDAEVSHMKKQKLKLKDEIHSMIIEYREK", "note": "[N14H]", "folding stability dG": -0.133}, {"variant": "HEFRDEISVLKANQPHFDKIFEKHNQLDDDIKTAEQQNASDAEVSHMKKQKLKLKDEIHSMIIEYREK", "note": "[N14Q]", "folding stability dG": -0.421}, {"variant": "HEFRDEISVLKANYPHFDKIFEKHNQLDDDIKTAEQQNASDAEVSHMKKQKLKLKDEIHSMIIEYREK", "note": "[N14Y]", "folding stability dG": 0.963}, {"variant": "HEFRDEISVLKANSPHFDKIFEKHNQLDDDIKTAEQQNASDAEVSHMKKQKLKLKDEIHSMIIEYREK", "note": "[N14S]", "folding stability dG": 0.54}, {"variant": "HEFRDEISVLKANAPHFDKIFEKHNQLDDDIKTAEQQNASDAEVSHMKKQKLKLKDEIHSMIIEYREK", "note": "[N14A]", "folding stability dG": -0.402}, {"variant": "HEFRDEISVLKANNPHFAKIFEKHNQLDDDIKTAEQQNASDAEVSHMKKQKLKLKDEIHSMIIEYREK", "note": "[D18A]", "folding stability dG": 2.29}, {"variant": "HEFRDEISVLKANNPHPDKIFEKHNQLDDDIKTAEQQNASDAEVSHMKKQKLKLKDEIHSMIIEYREK", "note": "[F17P]", "folding stability dG": -0.525}]}]}
